Reference: PMC4980424, “Glucansucrase Gtf180-ΔN of Lactobacillus reuteri 180: enzyme and reaction engineering for improved glycosylation of non-carbohydrate molecules” (Applied Microbiology and Biotechnology, 2016)
Where a chain is given by its changes, count along the chain named. Names may count otherwise.

B1: Gtf180-ΔN (Limosilactobacillus reuteri) (protein)
chain: INGQQYYIDPTTGQPRKNFLLQNGNDWIYFDKDTGAGTNALKLQFDKGTISADEQYRRGNEAYSYDDKSIENVNGYLTADTWYRPKQILKDGTTWTDSKETDMRPILMVWWPNTVTQAYYLNYMKQYGNLLPASLPSFSTDADSAELNHYSELVQQNIEKRISETGSTDWLRTLMHEFVTKNSMWNKDSENVDYGGLQLQGGFLKYVNSDLTKYANSDWRLMNRTATNIDGKNYGGAEFLLANDIDNSNPVVQAEELNWLYYLMNFGTITGNNPEANFDGIRVDAVDNVDVDLLSIARDYFNAAYNMEQSDASANKHINILEDWGWDDPAYVNKIGNPQLTMDDRLRNAIMDTLSGAPDKNQALNKLITQSLVNRANDNTENAVIPSYNFVRAHDSNAQDQIRQAIQAATGKPYGEFNLDDEKKGMEAYINDQNSTNKKWNLYNMPSAYTILLTNKDSVPRVYYGDLYQDGGQYMEHKTRYFDTITNLLKTRVKYVAGGQTMSVDKNGILTNVRFGKGAMNATDTGTDETRTEGIGVVISNNTNLKLNDGESVVLHMGAAHKNQKYRAVILTTEDGVKNYTNDTDAPVAYTDANGDLHFTNTNLDGQQYTAVRGYANPDVTGYLAVWVPAGAADDQDARTAPSDEAHTTKTAYRSNAALDSNVIYEGFSNFIYWPTTESERTNVRIAQNADLFKSWGITTFELAPQYNSSKDGTFLDSIIDNGYAFTDRYDLGMSTPNKYGSDEDLRNALQALHKAGLQAIADWVPDQIYNLPGKEAVTVTRSDDHGTTWEVSPIKNVVYITNTIGGGEYQKKYGGEFLDTLQKEYPQLFSQVYPVTQTTIDPSVKIKEWSAKYFNGTNILHRGAGYVLRSNDGKYYNLGTSTQQFLPSQLSVQDNEGYGFVKEGNNYHYYDENKQMVKDAFIQDSVGNWYYFDKNGNMVANQSPVEISSNGASGTYLFLNNGTSFRSGLVKTDAGTYYYDGDGRMVRNQTVSDGAMTYVLDENGKLVSESFDSSATEAHPLKPGDLNGQK
notes: N-terminally truncated Gtf180 (ΔN)
B2: Gtf180-ΔN (Limosilactobacillus reuteri; N1029M) (protein)
chain: B1 chain with N288M
notes: as for B1
B3: Gtf180-ΔN (Limosilactobacillus reuteri; L938F) (protein)
chain: B1 chain with L197F
notes: as for B1
B4: Gtf180-ΔN (Limosilactobacillus reuteri; L981A) (protein)
chain: B1 chain with L240A
notes: as for B1

Legend:
[1] = substrate: OC[C@H]1O[C@H](Oc2ccccc2O)[C@H](O)[C@@H](O)[C@@H]1O; test: initial rates by TLC densitometry; Michaelis-Menten fit; type: biochemical, Limosilactobacillus reuteri; conditions: acceptor substrate, 1000 mM sucrose as donor, pH 4.7, 37 °C
From the text: initial rates by TLC densitometry; Michaelis-Menten fit on Gtf180-ΔN

[2] = substrate: Oc1ccccc1O; test: initial rates of catechol-G1 formation by TLC densitometry; Michaelis-Menten fit; type: biochemical, Limosilactobacillus reuteri; conditions: acceptor substrate, 1000 mM sucrose as donor, pH 4.7, 37 °C
From the text: initial rates of catechol-G1 formation by TLC densitometry; Michaelis-Menten fit on Gtf180-ΔN

Protein | Km [1] | kcat [1] | kcat/Km [1] | Km [2] | kcat [2] | kcat/Km [2]
B1 | 88.8 ± 17.1 mM | 863 ± 39.3 s⁻¹ | 10200 M⁻¹ s⁻¹ |  |  | 
B2 |  |  |  | 58.9 ± 6.4 mM | 449 ± 4.9 s⁻¹ | 7700 M⁻¹ s⁻¹
B3 | 91.1 ± 7.3 mM | 576 ± 44 s⁻¹ | 6300 M⁻¹ s⁻¹ | 85.5 ± 4.0 mM | 1870 ± 74.7 s⁻¹ | 21900 M⁻¹ s⁻¹
B4 |  |  |  | 11.0 ± 1.3 mM | 203 ± 8.1 s⁻¹ | 18700 M⁻¹ s⁻¹
